According to paper PMC6628679 (2019):

Target: the molecule itself

B1: PfPKG (protein)
chain: MEEDDNLKKGNERNKKKAIFSNDDFTGEDSLMEDHLELREKLSEDIDMIKTSLKNNLVCSTLNDNEILTLSNYMQFFVFKSGNLVIKQGEKGSYFFIINSGKFDVYVNDKKVKTMGKGSSFGEAALIHNTQRSATIIAETDGTLWGVQRSTFRATLKQLSNRNFNENRTFIDSVSVFDMLTEAQKNMITNACVIQNFKSGETIVKQGDYGDVLYILKEGKATVYINDEEIRVLEKGSYFGERALLYDEPRSATIIAKEPTACASICRKLLNIVLGNLQVVLFRNIMTEALQQSEIFKQFSGDQLNDLADTAIVRDYPANYNILHKDKVKSVKYIIVLEGKVELFLDDTSIGILSRGMSFGDQYVLNQKQPFKHTIKSLEVCKIALITETCLADCLGNNNIDASIDYNNKKSIIKKMYIFRYLTDKQCNLLIEAFRTTRYEEGDYIIQEGEVGSRFYIIKNGEVEIVKNKKRLRTLGKNDYFGERALLYDEPRTASVISKVNNVECWFVDKSVFLQIIQGPMLAHLEERIKMQDTKVEMDELETERIIGRGTFGTVKLVHHKPTKIRYALKCVSKRSIINLNQQNNIKLEREITAENDHPFIIRLVRTFKDSKYFYFLTELVTGGELYDAIRKLGLLSKSQAQFYLGSIILAIEYLHERNIVYRDLKPENILLDKQGYVKLIDFGCAKKVQGRAYTLVGTPHYMAPEVILGKGYGCTVDIWALGICLYEFICGPLPFGNDEEDQLEIFRDILTGQLTFPDYVTDTDSINLMKRLLCRLPQGRIGCSINGFKDIKDHPFFSNFNWDKLAGRLLDPPLVSKSETYAEDIDIKQIEEEDAEDDEEPLNDEDNWDIDF
Kd: ~32 µM
